Laboratory results as given in paper PMC4702109, “Osmotic stress induces the phosphorylation of WNK4 Ser575 via the p38MAPK-MK pathway” (Scientific Reports, 2016).
Where no end group is shown, it is not given here. [ ]: non-standard residue; d: D form. pS = N[C@@H](COP(=O)(O)O)C(=O)O

T1: GST-hKLHL3 (290–587) (human, UniProt Q9UH77 290-587)
T1 construct: Kelch-like protein 3 (KLHL3), human, residues 290-587; End of the tag read from the construct's name; also called GST-KLHL3 (290–587); GST-KLHL3; source: E. coli BL21, purified (glutathione-Sepharose column, eluted with glutathione); not shown: GST, N-terminal, kept
T1 sequence (looked up): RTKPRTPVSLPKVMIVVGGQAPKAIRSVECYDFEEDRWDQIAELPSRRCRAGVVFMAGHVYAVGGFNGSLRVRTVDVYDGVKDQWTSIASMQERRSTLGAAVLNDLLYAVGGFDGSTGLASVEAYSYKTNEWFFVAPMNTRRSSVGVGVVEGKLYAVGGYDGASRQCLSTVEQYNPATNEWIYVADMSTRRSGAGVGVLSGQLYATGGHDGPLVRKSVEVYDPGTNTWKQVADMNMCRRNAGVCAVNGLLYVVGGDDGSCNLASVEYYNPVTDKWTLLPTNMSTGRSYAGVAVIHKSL


Target: T1, GST-hKLHL3 (290–587)
Experiment: pull-down; FLAG-tagged synthetic WNK4 (557–580) peptides (1 μg) held on anti-FLAG antibody beads; GST-hKLHL3 (290–587) incubated 6 hours, washed with IP lysis buffer; immunoblot; two amounts of GST-KLHL3 (3-fold apart)
Conditions: both partners purified

Row | binding result | Binder
1 | binds | EPEEPEADQHQPFLFRHA[pS]YSSTT (peptide, UniProt Q96J92 557-580, looked up, also: FLAG tag, position not given here, Held on anti-FLAG antibody beads; also called peptide phosphorylated at Ser575; source: synthetic peptide (bought: Eurofins Genomics)) [WNK4 (557–580)-pS575 peptide]
2 | binds | EPEEPEADQHQPFLFRHASYSSTT (peptide, UniProt Q96J92 557-580, looked up, Held on anti-FLAG antibody beads; also called unphosphorylated peptide; source: synthetic peptide (bought: Eurofins Genomics)) [WNK4 (557–580)-WT peptide]
